Data on two molecules can be found in patent US20220242939A1 (BIOARCTIC, published 2022).

The target of assay [1] is T1, L198 N-terminal neo-epitope peptide LAGQPL-Acp-C (SEQ ID NO:52) conjugated to BSA (human, not fully specified (residue 8); printed as LAGQPL-Acp-C; also: C-terminal Cys conjugated to BSA carrier).
T1 construct: BSA carrier; also called L198-BSA peptide
T1 peptide: LAGQPL[Ahx]C
Kind of assay: direct ELISA, L198-BSA peptide coated at 1 µg/ml. As to the method: (§1) Selectivity evaluation of purified monoclonal antibodies by direct ELISA: The direct ELISA described below was used to evaluate the binding selectivity of the purified monoclonal antibodies produced in Example 14.
(§2) The screening was performed according to standard ELISA protocols. Briefly, 1 μg/ml solutions of BSA-conjugated neo-epitope peptides and negative control peptide, and 0.1 μM recombinant C-terminal ApoE fragment and full-length ApoE (Abcam, cat. no. ab50243) were prepared by dilution in PBS. 50 μl/well were added to an ELISA half-area 96 well microtiter plate, and the plate was sealed with adhesive sealer and incubated over night at 4° C. After discarding the solution, the plates were blocked with 150 μl/well of protein-free blocking solution (Pierce) for 1 h at room temperature with shake (600-900 rpm). The plates were washed four times with washing buffer containing 0.28 mM NaH₂PO₄, 2.5 mM Na₂HPO₄, 150 mM NaCl, 0.1% TWEEN®-20 and 0.0075% Kathon CG. Purified monoclonal antibodies of interest were 3-fold serially diluted with a starting dilution at 3 μg/ml (mixed 1:2 with dilution buffer (PBS with 0.1% BSA and 0.05% TWEEN®-20)). An anti-ApoE C-terminal antibody was used as a reference antibody (ApoE E-8 mouse monoclonal, Santa Cruz Biotechnology, cat. no. sc-393302). 50 μl/well were added into the ELISA plates and incubated for 2 h at room temperature with shake (600-900 rpm). The plates were washed four times as described previously. […] After another wash (as described previously), 50 μl/well of K-Blue® aqueous substrate (Neogen) were added, and the reaction was stopped after 5-15 min with 50 μl/well of 0.5 M […]. The optical density at 450 nm was read using an ELISA reader (Tecan).
In general terms: In an ELISA, binding on a coated surface is turned into a signal by an enzyme label.

Assay [2] has as its target T2, recombinant C-terminal ApoE fragment L198-HIS (ApoE-L198-H299-10xHIS) (human, UniProt P02649 216-317).
T2 construct: also called L198-HIS fragment
Briefly: SPR (Biacore 8K), L198-HIS amine-coupled on CM5, antibody as analyte, bivalent analyte fit (kd1). As to the method: (§3) Selectivity evaluation and KD determination of purified monoclonal antibodies by surface plasmon resonance: Binding interactions between the antigens and antibodies were evaluated by surface plasmon resonance (SPR) using a Biacore 8K instrument (GE Healthcare) according to standard procedures.
(§4) Selectivity evaluation and KD determination of purified monoclonal antibodies by surface plasmon resonance: The five purified monoclonal antibodies 6F4, 8B3, 12B1, 15F8 and 15H11 were evaluated for selectivity, and KD values for the target antigen were determined by surface plasmon resonance.

Assay [3] deals with T3, full-length ApoE in human brain extract from Alzheimer's disease patients (human, UniProt P02649 19-317).
T3 construct: mature; Endogenous protein on Western blot or in solution (IP); also called ApoE full-length protein
T3 sequence (P02649 19-317): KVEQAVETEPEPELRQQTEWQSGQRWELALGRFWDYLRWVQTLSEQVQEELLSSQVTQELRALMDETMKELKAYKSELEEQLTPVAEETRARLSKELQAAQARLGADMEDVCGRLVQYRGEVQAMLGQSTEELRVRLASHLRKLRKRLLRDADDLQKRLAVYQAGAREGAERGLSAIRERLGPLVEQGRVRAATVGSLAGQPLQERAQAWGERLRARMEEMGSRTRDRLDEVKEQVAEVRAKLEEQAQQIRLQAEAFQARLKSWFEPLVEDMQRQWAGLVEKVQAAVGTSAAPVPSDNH
Briefly: Western blot of AD brain RIPA 2% SDS extract; monoclonal antibody at 2 ug/ml as primary antibody. In general terms: In western blotting, separated proteins are transferred to a membrane and probed.

In assay [4] the target is T2, recombinant C-terminal ApoE fragment …. Kind of assay: SPR (Biacore 8K), L198-HIS amine-coupled on CM5, antibody as analyte, bivalent analyte fit (KD1). The protocol: as §3, §4
A general note: SPR reads the build-up and loss of mass on a sensor chip optically.

The target is the same in assay [5]. Briefly: SPR (Biacore 8K), L198-HIS amine-coupled on CM5, antibody as analyte, bivalent analyte fit (ka1).
Assay [6] has the same target. Briefly: direct ELISA, L198-HIS coated at 0.1 µM. As to the method:
as §1, §2

The target in assay [7] is T4, L198 N-terminal neo-epitope peptide LAGQPLQE-Acp-C (SEQ ID NO:54) conjugated to BSA (human, not fully specified (residue 10); printed as LAGQPLQE-Acp-C; also: C-terminal Cys conjugated to BSA carrier).
T4 construct: BSA carrier
T4 peptide: LAGQPLQE[Ahx]C
Briefly: direct ELISA after limiting dilution.

Assay [8] deals with 38G9, monoclonal anti-A199 antibody. Kind of assay: inhibition ELISA: antigen in solution varied, antibody 38G9 at 0.05 µg/ml, plate coated with A199-BSA peptide. The protocol:
(§5) 0.5 μg/ml solution of N-terminal neo-epitope peptide A199 (SEQ ID NO:51) conjugated to BSA was prepared by dilution in PBS. 50 μl/well were added to an ELISA half-area 96 well microtiter plate, the plate was sealed with adhesive sealer and incubated over night at 4° C. After discarding the solution, the plates were blocked with protein-free blocking solution (Pierce) (150 μl/well) at room temperature for 90 min with shaking (900 rpm). The blocked plate was washed four times with washing buffer containing 0.28 mM NaH₂PO₄, 2.5 mM Na₂HPO₄, 150 mM NaCl, 0.1% TWEEN®-20 and 0.0075% Kathon CG.
(§6) Serial dilutions of each synthetic ApoE peptide were prepared by 4-fold dilution starting from 10000 ng/ml in 96 well storage plates (30 μl final volume). Each purified monoclonal antibody to be tested was added (30 μl) to the serial dilutions of each of the synthetic ApoE peptides at a final concentration of 0.05 μg/ml per well. […]
(§7) The pre-incubated samples were transferred (50 μl/well) to the blocked ELISA plates, and plates were incubated for 10 min at room temperature without shaking. […] Alkaline phosphatase substrate (50 μl/well) was added to the plate and the optical density was read every 10 min at a wavelength of 405 nm for up to 120 min. The IC50 values were determined from a log inhibitor concentration response curve (FIG. 29).

Assay [9] has as its target 67G3, monoclonal anti-A199 antibody. Kind of assay: inhibition ELISA: antigen in solution varied, antibody 67G3 at 0.05 µg/ml, plate coated with A199-BSA peptide. The protocol:
as §5, §6, §7

Assay [10] addresses T5, 7B10, recombinant IgG2c antibody.
T5 construct: also called 7610
Kind of assay: inhibition ELISA, second protocol; antibody at 0.05 ug/ml pre-incubated with the peptide in solution (4-fold dilutions from 10000 ng/ml), then on a plate coated with G200-BSA peptide; blank reduced OD 405 nm. As to the method:
(§8) […] of each synthetic ApoE peptide, recombinant C-terminal ApoE fragment G200-HIS and full-length ApoE4 were prepared by 4-fold dilution starting from 1000 ng/ml in 96 well storage plates (30 μl final volume). Each recombinant antibody to be tested was added (30 μl) to the serial dilutions of each of the synthetic ApoE peptides, G200-HIS or full-length ApoE4 at a final concentration of 0.05 μg/ml per well. Samples were pre-incubated for 45 min at room temperature with shaking (900 rpm).
(§9) The pre-incubated samples were transferred (50 μl/well) to the blocked ELISA plates, and plates were incubated for 25 min at room temperature without shaking. Plates were washed as described above. Alkaline phosphatase conjugated anti-mouse IgG detection antibody (Mabtech, cat. no. 3310-4) was diluted 1:1000 and added to each plate (50 μl/well). The plate was sealed and incubated with shaking (900 rpm) for 45 min at room temperature and subsequently washed as described above. Alkaline phosphatase substrate (50 μl/well) was added to the plate and the optical density was read every 15 min at a wavelength of 405 nm for up to 120 min. The IC50 values were determined from a log inhibitor concentration response curve (FIG. 17).
(§10) In addition, a second inhibition ELISA with the ApoE peptides conjugated to BSA was run, in which the starting concentration of the antigens in solution was increased 10-fold. i.e. the starting concentration of the N-terminal neo-epitope of synthetic ApoE peptides conjugated to BSA and starting at amino acid L198 (SEQ ID NO:52), A199 (SEQ ID NO:51) or G200 (SEQ ID NO:50), or to BSA-conjugated negative control peptide (SEQ ID NO:53), was 10000 ng/ml. Furthermore, a 4-fold serial dilution of antigen was used, the plates were blocked with protein-free blocking solution (Pierce) for 90 min, the pre-incubated samples were incubated on the coated plates for 10 min (instead of 25 min), and the optical density was read every 10 min (instead of every 15 min). IC50 values were determined from a log inhibitor concentration response curve (FIG. 20).

Assay [11] concerns the target 23D5, recombinant IgG2c antibody. The description is as above. As to the method:
as §8, §9, §10

The target of assay [12] is 7C7, recombinant IgG2c antibody. The description is as above. The protocol: as §8, §9, §10
Sequence of 7C7, recombinant IgG2c antibody (VH, as listed by the source, chain 1 of 2): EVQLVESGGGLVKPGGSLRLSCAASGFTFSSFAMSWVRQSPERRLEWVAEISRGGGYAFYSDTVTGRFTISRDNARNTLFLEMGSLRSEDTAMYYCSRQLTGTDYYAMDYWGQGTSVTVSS
Sequence of 7C7, recombinant IgG2c antibody (VL, as listed by the source, chain 2 of 2): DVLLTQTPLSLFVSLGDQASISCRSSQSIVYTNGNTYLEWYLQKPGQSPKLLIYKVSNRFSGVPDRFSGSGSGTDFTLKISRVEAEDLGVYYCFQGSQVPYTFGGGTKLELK
Assay [13] has as its target 17G4, recombinant IgG2c antibody. The assay is described as above. As to the method:
as §8, §9, §10

For assay [14], the target named is 36A12, monoclonal anti-A199 antibody. Kind of assay: inhibition ELISA: antigen in solution varied, antibody 36A12 at 0.05 µg/ml, plate coated with A199-BSA peptide. The protocol:
as §5, §6, §7

The target in assay [15] is 6F4, monoclonal anti-L198 antibody. Kind of assay: inhibition ELISA; antibody at 0.05 ug/ml pre-incubated with the peptide in solution (4-fold dilutions from 10000 ng/ml), then on a plate coated with L198-BSA peptide; blank reduced OD 405 nm. The protocol: 0.5 μg/ml solution of N-terminal neo-epitope peptide L198 (SEQ ID NO:52) conjugated to BSA was prepared by dilution in PBS. 50 μl/well were added to an ELISA half-area 96 well microtiter plate, the plate was sealed with adhesive sealer and incubated over night at 4° C. After discarding the solution, the plates were blocked with protein-free blocking solution (Pierce) (150 μl/well) at room temperature for 90 min with shaking (900 rpm). The blocked plate was washed four times with washing buffer containing 0.28 mM NaH₂PO₄, 2.5 mM Na₂HPO₄, 150 mM NaCl, 0.1% TWEEN®-20 and 0.0075% Kathon CG.
Sequence of 6F4, monoclonal anti-L198 antibody (VH, as listed by the source, chain 1 of 2): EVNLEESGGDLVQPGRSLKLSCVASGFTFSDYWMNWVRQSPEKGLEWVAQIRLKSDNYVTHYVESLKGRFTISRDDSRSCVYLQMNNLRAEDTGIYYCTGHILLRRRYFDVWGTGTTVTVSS
Sequence of 6F4, monoclonal anti-L198 antibody (VL, as listed by the source, chain 2 of 2): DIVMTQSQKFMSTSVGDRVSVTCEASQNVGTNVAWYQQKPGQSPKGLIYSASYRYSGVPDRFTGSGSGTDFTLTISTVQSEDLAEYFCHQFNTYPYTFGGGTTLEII
Serial dilutions of each synthetic ApoE peptide were prepared by 4-fold dilution starting from 10000 ng/ml in 96 well storage plates (30 μl final volume). Each recombinant antibody to be tested was added (30 μl) to the serial dilutions of each of the synthetic ApoE peptides at a final concentration of 0.05 μg/ml per well. Samples were pre-incubated for 45 min at room temperature with shaking (900 rpm).
as §9, with “10” for “25”, “10” for “15”, “25).” for “17).”

Assay [16] deals with 63F6, monoclonal anti-A199 antibody. Kind of assay: inhibition ELISA: antigen in solution varied, antibody 63F6 at 0.05 µg/ml, plate coated with A199-BSA peptide. The protocol: as §5, §6, §7
Sequence of 63F6, monoclonal anti-A199 antibody (VH, as listed by the source, chain 1 of 2): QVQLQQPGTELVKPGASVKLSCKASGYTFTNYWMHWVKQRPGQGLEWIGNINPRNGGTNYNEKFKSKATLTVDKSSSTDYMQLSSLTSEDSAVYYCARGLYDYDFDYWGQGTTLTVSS
Sequence of 63F6, monoclonal anti-A199 antibody (VL, as listed by the source, chain 2 of 2): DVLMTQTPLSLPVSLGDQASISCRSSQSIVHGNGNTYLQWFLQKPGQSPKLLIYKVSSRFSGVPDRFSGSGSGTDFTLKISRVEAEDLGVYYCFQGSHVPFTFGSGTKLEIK

Non-standard residues stand in square brackets, D forms with d. No end group written: not given here. Ahx = NCCCCCC(=O)O

T2 sequence (P02649 other isoform, or with tags, fused parts or gaps limits assumed): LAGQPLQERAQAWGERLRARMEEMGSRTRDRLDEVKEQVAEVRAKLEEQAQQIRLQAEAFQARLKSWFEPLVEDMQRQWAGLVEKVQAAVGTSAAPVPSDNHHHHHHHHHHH
T5 sequence (VH, as listed by the source, chain 1 of 2): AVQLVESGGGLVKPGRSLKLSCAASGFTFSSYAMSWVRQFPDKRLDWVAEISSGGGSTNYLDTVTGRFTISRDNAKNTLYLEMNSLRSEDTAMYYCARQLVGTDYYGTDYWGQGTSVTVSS
T5 sequence (VL, as listed by the source, chain 2 of 2): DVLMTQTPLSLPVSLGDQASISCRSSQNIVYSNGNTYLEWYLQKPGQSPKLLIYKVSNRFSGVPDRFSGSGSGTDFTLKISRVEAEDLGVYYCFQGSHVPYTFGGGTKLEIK
Sequence of 23D5, recombinant IgG2c antibody (VH, as listed by the source, chain 1 of 2): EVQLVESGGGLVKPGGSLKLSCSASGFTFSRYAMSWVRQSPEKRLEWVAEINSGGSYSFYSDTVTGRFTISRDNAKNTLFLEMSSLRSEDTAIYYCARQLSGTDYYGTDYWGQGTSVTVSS
Sequence of 23D5, recombinant IgG2c antibody (VL, as listed by the source, chain 2 of 2): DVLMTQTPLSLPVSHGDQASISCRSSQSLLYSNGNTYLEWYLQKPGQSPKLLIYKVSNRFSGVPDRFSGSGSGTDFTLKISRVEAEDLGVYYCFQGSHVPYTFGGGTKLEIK
Sequence of 17G4, recombinant IgG2c antibody (VH, as listed by the source, chain 1 of 2): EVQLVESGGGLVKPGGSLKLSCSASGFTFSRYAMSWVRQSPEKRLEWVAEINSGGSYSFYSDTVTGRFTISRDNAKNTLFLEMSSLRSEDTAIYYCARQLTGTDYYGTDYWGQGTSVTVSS
Sequence of 38G9, monoclonal anti-A199 antibody (VH, as listed by the source, chain 1 of 2): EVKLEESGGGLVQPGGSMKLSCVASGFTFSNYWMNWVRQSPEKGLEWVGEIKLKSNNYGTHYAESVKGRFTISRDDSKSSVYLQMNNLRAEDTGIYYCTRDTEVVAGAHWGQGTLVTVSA
Sequence of 38G9, monoclonal anti-A199 antibody (VL, as listed by the source, chain 2 of 2): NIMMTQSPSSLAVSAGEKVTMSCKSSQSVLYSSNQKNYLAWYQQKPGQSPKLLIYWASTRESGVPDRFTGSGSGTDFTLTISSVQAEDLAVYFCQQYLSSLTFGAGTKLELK
Sequence of 67G3, monoclonal anti-A199 antibody (VH, as listed by the source, chain 1 of 2): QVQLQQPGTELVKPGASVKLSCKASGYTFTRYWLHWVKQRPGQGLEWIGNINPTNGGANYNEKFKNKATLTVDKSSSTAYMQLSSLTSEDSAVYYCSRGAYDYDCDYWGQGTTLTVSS
Sequence of 67G3, monoclonal anti-A199 antibody (VL, as listed by the source, chain 2 of 2): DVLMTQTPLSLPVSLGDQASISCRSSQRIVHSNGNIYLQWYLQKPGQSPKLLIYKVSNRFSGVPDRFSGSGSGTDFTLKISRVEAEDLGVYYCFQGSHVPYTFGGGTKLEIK
Sequence of 36A12, monoclonal anti-A199 antibody (VH, as listed by the source, chain 1 of 2): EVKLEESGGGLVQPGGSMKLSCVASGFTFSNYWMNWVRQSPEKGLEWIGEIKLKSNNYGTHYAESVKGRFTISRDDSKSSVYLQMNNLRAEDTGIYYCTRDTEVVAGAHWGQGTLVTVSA
Sequence of 36A12, monoclonal anti-A199 antibody (VL, as listed by the source, chain 2 of 2): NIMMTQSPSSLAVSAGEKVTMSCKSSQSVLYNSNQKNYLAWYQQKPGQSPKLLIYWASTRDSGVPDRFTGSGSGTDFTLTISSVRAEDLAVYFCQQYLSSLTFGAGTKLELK

B1: 8B3, monoclonal anti-L198 antibody (antibody, IgG2b, V domains shown)
VH: EVKVEESGGGVVQPGGSMKLSCLASGFTFRNYWMNWVRQSPEKGLEWVAQIRLKSDNYATRYAESVKGRFTISRDDSKSSVYLQMNNLRAEDTGTYYCSGHILLRYYALDFWGQGTSVTVSS
VL: DIVLTQSQKFMSTSVGDRVSVTCKASQNVYTDVAWYQQKPGQSPKGMIYSASYRYSGVPDRFTGSGSGTDFTLKISNVQSEDLAEYFCQQYNSFPYTFGGGTKLEIK
On to B1, for which the figures for the EC50 in assay [1] and in assay [6] were 8.4 ng/mL and 1.3 ng/mL, respectively. The dissociation rate constant (koff) in assay [2] amounted to 0.000302 s⁻¹. In addition, the binding result is listed as “no binding (tested: 2 ug/ml (text))” in assay [3] and “binds” in assay [7]. For the same molecule, the Kd in assay [4] came to 12 nM. In assay [5], the association rate constant (kon) is 42000 M⁻¹ s⁻¹.

B2: A199 N-terminal neo-epitope peptide AGQPLQ-Acp-C (SEQ ID NO:51) conjugated to BSA (peptide)
peptide: AGQPLQ[Ahx]C
modifications: not fully specified (residue 8); printed as AGQPLQ-Acp-C; also: C-terminal Cys conjugated to BSA carrier
notes: BSA carrier; also called A199-BSA peptide
Regarding B2, the IC50 in assay [8] came to 52.6 ng/mL; in [9], 2.9 ng/mL; in [14] it was 27.7 ng/mL; in assay [16], 2.5 ng/mL. For the same molecule, the binding result in assay [10], in assay [11], in [12], in assay [13] and in assay [15] was “no binding (tested: 10000 ng/ml)” each time.

A word on the EC50: it is the concentration needed to bring the measured effect to its halfway point. One may read the koff as the first-order rate constant of dissociation. Usually kon stands for the second-order rate constant of association. As a reminder, the IC50 is the concentration needed to halve the response being measured. A low value points to greater potency.
